Test results: US20230109318A1 (OBLIQUE THERAPEUTICS, published 2023)
Residue numbers refer to the chain shown, from its start. Values belong to the binder of their own block, whether it stands above or below them. No end group written: not given here.

Tests used:
[1] = target: T1, isolated G13D Ab1 peptide of SEQ ID NO:5 (human); experiment: ELISA, hybridoma supernatant on dilutions of the peptide, absorbance at 405 nm
T1 peptide: CGAGDVGKSALTI-NH2

[2] = target: T2, "wild-type" (WT) peptide having the amino acid sequence CGAGGVGKSALTI (SEQ ID NO:160); experiment: further ELISA on WT peptide; weaker than on the mutant peptide
T2 peptide: CGAGGVGKSALTI

[3] = target: T1, isolated G13D Ab1 peptide of SEQ ID NO:5; experiment: further ELISA, mutant peptide compared with WT peptide

- binding result [1]: binds
- binding result [2]: binds
B1: 4B8-1 (antibody, V domains shown)
VH: EVQLQQSGPERVKPGASVKMSCKASGYTFTDYSMHWVKQSHGKSLEWIGYINPNNGGASYNQKFKGKATLTVNKSSSTAYMELRSLTSEDSAVYYCARGDYYGGGYWGQGTTLTVSS
VL: ENVLTQSPAIMSASPGEKVTMTCSASSSVSYMHWYQQKSSTSPKLWIYDTSKVASGVPGRFSGSGSGNSYSLTINSMEAEDVATYYCFQGSGYPLTFGAGTKLELK
notes: Mouse monoclonal IgG from a hybridoma, tested as hybridoma supernatant

- binding result [2]: binds
- binding result [3]: binds
B2: 11D6-1 (antibody, V domains shown)
VH: EVQLQQSGPELVKPGASVKMSCKTSGYTFTDYTMHWVKQSHGKSLEWIGYINPNNGGTYYNQRFKGKATLTVSRSSSTAYIELRSLTSDDSAVYYCARGDYYGGGYWGQGTTLRVSS
VL: B1 VL with S26G, V53L, N75S, A99D
notes: as for B1

- binding result [1]: binds
- binding result [2]: binds
B3: 7D11-1 (antibody, V domains shown)
VH: QVQLQQPGAEFVKPGASVKLSCKASGYTFTRYWMHWVKQRPGRGLEWIGRIDPNSGGTTFNEKFKSKATLTVDKPSSTAYMQLSSLTSEDSAVYYCAREVGGYWGQGTTLTVSS
VL: B1 VL with S26G, S30D, V53L, N75S, K106R
notes: as for B1

- binding result [1]: binds
B4: 7G2-1 (antibody, V domains shown)
VH: QVTLKESGPGILQPSQTLSLTCSFSGFSLSTFGMGVGWIRQPSGKGLEWLAHIWWDDDKNYNPALKSRLTISKDTSKNQVFFKIANVDTADTATYYCVQLSTMGDGGYWGQGTLVTVSA
VL: NIVMTQSPKSMSMSVGERVTLSCKASENVGTYVSWYQQKPGQSPKLLIYGASNRYTGVPDRFTGSGSGTDFILTISSVQAEDLADYHCGQSYNYPFTFGSGTKLEIK
notes: as for B1
